We go through one molecule from US20040001822A1, “Y1-isolated molecules comprising epitopes containing sulfated moieties, antibodies to such epitopes, and uses thereof” (priority 2000, published 2004).

Starred links: 1 amine or outer side, 2 acyl side, 3 side chain; linkers in the order of their positions; H or OH if unused. No end group written: not given here. SO3H = sulfated tyrosine (Y*), O=S(=O)(O)[*:2]

Common to all, as to settings: remark: other sources report otherwise
The target of experiment [1] is Y1 scFv. The experiment in a line: competition ELISA, peptide 2.5 µM preincubated with Y1 (0.25 µg/well), glycocalicin-coated plate.
Y1 scFv, sequence (chain, as listed by the source): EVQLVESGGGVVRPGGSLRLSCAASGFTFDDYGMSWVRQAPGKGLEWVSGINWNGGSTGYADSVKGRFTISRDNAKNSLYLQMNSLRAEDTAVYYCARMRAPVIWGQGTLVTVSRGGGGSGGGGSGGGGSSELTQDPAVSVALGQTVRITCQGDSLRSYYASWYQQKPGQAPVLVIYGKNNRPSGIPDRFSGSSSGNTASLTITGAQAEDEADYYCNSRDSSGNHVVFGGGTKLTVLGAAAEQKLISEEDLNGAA
The target in experiment [2] is Y1 scFv. Briefly: competition ELISA, peptide 200 µM preincubated with Y1 (0.25 µg/well), glycocalicin-coated plate.
Experiment [3] concerns the target Y1 scFv. The experiment in a line: competition ELISA, peptide 0.5 µM preincubated with Y1 (0.25 µg/well), glycocalicin-coated plate. (In an ELISA, binding on a coated surface is turned into a signal by an enzyme label.)
In experiment [4] the target is Y1 scFv. The experiment in a line: competition FACS, peptide 200 µM preincubated with Y1-scFv, washed platelets.
Experiment [5] concerns the target Y1 scFv. Briefly: competition ELISA, peptide 25 µM preincubated with Y1 (0.25 µg/well), glycocalicin-coated plate.
For experiment [6], the target named is Y1 scFv. Briefly: competition FACS, peptide 2.5 µM preincubated with Y1-scFv, washed platelets.

B1: P-1-S peptide (residues 268-285 of GPIbα, sulfated) (peptide)
peptide: GDEGDTDLY(SO3H)DY(SO3H)Y(SO3H)PEEDTE
B1: the Residual Binding of Y1 (% of baseline) in experiment [1] is 62%; in experiment [2], 0%; in experiment [3], 89%; in experiment [5] it was 25%. Also, the figures for the Residual Binding of Y1 (% of baseline) (Geo Mean) in experiment [4] and in experiment [6] were 5% and 41%, respectively.
